Test results as given in article PMC11496930, “Targeting RSV-neutralizing B cell receptors with anti-idiotypic antibodies” (Cell Reports, 2024).
Values belong to the binder of their own block, whether it stands above or below them.

Biological target: ADI-19425 Fab (human, UniProt P0DOY2)
Experiment: BLI; 1D3 IgG or 2C1 IgG (67 nM) on anti-human IgG capture sensors; ADI-19425 Fab in serial dilutions from 250 nM to 0 nM; KB buffer, 30°C; 1:1 binding model
Settings: both partners purified

ADI-19425 Fab, sequence (VH, as listed by the source, chain 1 of 2): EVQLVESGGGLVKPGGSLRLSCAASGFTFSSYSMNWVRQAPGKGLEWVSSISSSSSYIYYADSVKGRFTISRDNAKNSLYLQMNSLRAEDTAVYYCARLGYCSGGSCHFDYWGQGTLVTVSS
ADI-19425 Fab, sequence (VL, as listed by the source, chain 2 of 2): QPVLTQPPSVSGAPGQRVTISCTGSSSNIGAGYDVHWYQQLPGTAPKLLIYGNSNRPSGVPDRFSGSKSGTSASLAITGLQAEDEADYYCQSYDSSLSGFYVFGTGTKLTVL

Kd: 1500 pM
B1: 2C1 recombinant IgG (human constant regions) (antibody, V domains shown)
VH: QVQLQQSGAELVRPGASVTLSCKASGYIFTDYEIHWLKQTPVHGLEWIGTSDPETGGFAYTQKFKGKAILTADKSSSTAYMELRSLTSEDSAVYYCTRRPYYGSGAWFAYWGQGTLVTVSA
VL: DIVMTQSHKFMSTSVGDRVSITCKANHDVNIAVAWYQQKPGQSPKLLIYSASYRYTGVPDRFTGSGSGTDFTFTISSVQAEDLAVYYCQQHYDTPRTFGGGTKLEIK
notes: also called 2C1-IgG; 2C1 IgG; source: 293-6E cells, purified (Protein A)

Kd: 400 pM
B2: 1D3 recombinant IgG (human constant regions) (antibody, V domains shown)
VH: QVQIQQSGAELMRPGASVKLSCKATGYTFTGYWIEWVKQRPGHGLEWIGEILSGRGTTNYNEKFKGKATFTADTYSNTAYMQLSSLTTGDSAIYYCARGGFLYGDGPFDYWGQGTTLTVSS
VL: DILLTQSPAILSVSPGERVSFSCRASQNIDTHIHWYQQRTNGSPRLLIKYASESISGIPSRFSGSGSGTDFTLTINSVESEDIADYYCQQSNSWPFTFGSGTKLEIK
notes: also called 1D3-IgG; 1D3 IgG; source: 293-6E cells, purified (Protein A)
